Source: paper PMC6661908

Tested on: FOXA1 P358fs (purified)
Assay: BLI
Conditions: buffer, pH and temperature not given

Work on KLK3 enhancer 60 bp yielded a binding signal (fold higher affinity than WT) of 5.
